Test results from patent US20220098287A1.

Tests used:
[1] = target: human α-CGRP K35A (19-37) (human); assay: SPR (Biacore), 25 °C, Fab over peptide on SA chip; KD of mutant over KD of parent 19-37
[2] = target: human α-CGRP F37A (25-37) (human); assay: SPR (Biacore), 25 °C, Fab over peptide on SA chip; KD of mutant over KD of parent 25-37
[3] = target: human α-CGRP G33A (25-37) (human); assay: as above
[4] = target: human α-CGRP N31A (25-37) (human); assay: as above
[5] = target: human α-CGRP P29A (25-37) (human); assay: as above
[6] = target: human α-CGRP S34A (25-37) (human); assay: as above
[7] = target: human α-CGRP T30A (25-37) (human); assay: as above
[8] = target: human α-CGRP V32A (25-37) (human); assay: as above

KD (mutant/parent) [1]: 4
KD (mutant/parent) [2]: 3600
KD (mutant/parent) [3]: 1260
KD (mutant/parent) [4]: 9
KD (mutant/parent) [5]: 26
KD (mutant/parent) [6]: 69
KD (mutant/parent) [7]: 7
KD (mutant/parent) [8]: 41
Substance: murine anti-CGRP monoclonal antibody 7E9, Fab fragment
